Source: IntAct's records for PubMed 22596162

B1: E3 ubiquitin-protein ligase RLIM (Mus musculus), Q9WTV7 (parent)
chain: MENSDSNDKGSDQSAAQRRSQMDRLDREEAFYQFVNNLSEEDYRLMRDNNLLGTPGESTEEELLRRLQQIKEGPPPQSPDENRAGESSDDVTNSDSIIDWLNSVRQTGNTTRSGQRGNQSWRAVSRTNPNSGDFRFSLEINVNRNNGSQTSENESEPSTRRLSVENMESSSQRQMENSASESASARPSRAERNSAEAVTEVPTTRAQRRARSRSPEHRRTRARAERSRSPLQPTSEIPRRAPTLEQSSENEPEGSSRTRHHVTLRQQISGPELLGRGLFAASGSRNPSQGTSSSDTGSNSESSGSGQRPPTIVLDLQVRRVRPGEYRQRDSIASRTRSRSQAPNNTVTYESERGGFRRTFSRSERAGVRTYVSTIRIPIRRILNTGLSETTSVAIQTMLRQIMTGFGELSYFMYSDSDSEPSASVSSRNVERVESRNGRGSSGGGNSSGSSSSSSPSPSSSGESSESSSEMFEGSSEGGSSGPSRRDGRHRAPVTFDESGSLPFLSLAQFFLLNEDDEDQPRGLTKEQIDNLAMRSFGENDALKTCSVCITEYTEGNKLRKLPCSHEYHVHCIDRWLSENSTCPICRRAVLSSGNRESVV

Variants of: B1
Details: with zfp42_mouse Zfp42, P22227
Sequence of zfp42_mouse Zfp42, P22227 (P22227 whole entry): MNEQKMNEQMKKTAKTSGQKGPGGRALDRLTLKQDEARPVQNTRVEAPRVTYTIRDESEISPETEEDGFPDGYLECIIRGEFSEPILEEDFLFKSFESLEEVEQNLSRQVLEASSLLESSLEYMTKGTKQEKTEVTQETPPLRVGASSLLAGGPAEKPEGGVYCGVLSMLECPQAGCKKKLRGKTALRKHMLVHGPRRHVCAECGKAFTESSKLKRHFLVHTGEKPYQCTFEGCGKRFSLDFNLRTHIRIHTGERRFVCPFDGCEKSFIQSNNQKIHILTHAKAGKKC

| Variant | effect of a mutation on the interaction |
| --- | --- |
| H569A;C572A | with no effect |
